This assay deals with Erv1 with a C-terminal histidine tag (Erv1-His) (S. cerevisiae) (UniProt P27882). Put plainly: pull-down.
Chain of UniProt P27882 (P27882 whole entry): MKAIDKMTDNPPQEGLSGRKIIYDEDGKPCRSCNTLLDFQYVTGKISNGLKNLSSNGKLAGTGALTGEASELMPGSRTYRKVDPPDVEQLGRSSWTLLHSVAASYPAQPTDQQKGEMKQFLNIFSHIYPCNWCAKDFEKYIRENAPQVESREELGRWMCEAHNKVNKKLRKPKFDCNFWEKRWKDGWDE

Consider “Osm1 (fumarate reductase), endogenous mitochondrial form (from UniProt P21375 33-501) (enzyme)”, for which the fraction copurified is 10%.
